Source: patent US20240043504A1 (published 2024)
Residue numbers refer to the chain shown, from its start.

B1: mAb10939 (antibody, V domains shown)
VH: EVQLVESGGGLVQPGGSLRLSCAASGLTVSSNYMNWVRQVPGKGLEWVSVIYSGGSKFYVDSVKGRFTISRHNSKNTLYLQMNSLRPEDTAVYYCTRDAQYYGMDVWGQGTTVTVSS
VL: DIQMTQSPSSLSASVGDRVTITCRASQSISTYLHWYQQKPGEAPKLLIYAASSLQSGVPSRFSGSGSGTDFTLTISSLQPEDFATYYCQQSYSTPPEIFGQGTKLEIKR
B2: mAb10956 (antibody, V domains shown)
VH: B1 VH with N35S, V40A, K57T, V60A, H72D, P87A, T96A, A99L, Q100I, Y101K
VL: not shown
B3: mAb10998 (antibody, V domains shown)
VH: EVQLVESGGGLVHPGGSLRLSCAASGLTVSSNYMSWVRQAPGKGLEWVSVIYSGGSTYYADSVKGRFTISRHNSKNTLFLQMNSLRAEDTAVYYCARDRPITGTTLDVWGQGTTVTVSS
VL: B1 VL with S12F, T31S, H34N, E42K, T85F, S91T, E97I, I98T, K104R
B4: mAb10964 (antibody, V domains shown)
VH: QVQLQESGPGLVKPSETLSLTCTVSGGSINNYYWIWIRQPPGKGLEWIGYIYHSGSTNYNPSLKSRVTISVDTSKNQFSLKVSSVTAADTAVYYCANMVRGVYEDDYWGQGTLVTVSS
VL: DIQMTQSPSSLSASVGDRVTITCRASQSISNYLNWYQQKPGKAPKLLIFAASSLRSGVPSRFSGSGSGTDFTLTISSLHPEDFATYYCQQNYNTPLTFGPGTKVDIKR
B5: mAb11006 (antibody, V domains shown)
VH: EVQLVESGGGLVQPGGSLRLSCAASGFIVSRNYMSWVRQAPGKGLEWVSVIYSGGSTFYADSVKGRFTISRHNSKNTLYLQMNSLKAEDTAVYYCARELRGYFDYWGQGTLVTVSS
VL: DIQLTQSPSFLSASVGDRVTITCWASQGISSYLAWYQQKPGKAPKLLIYAASTLQSGVPSRFSGSGSGTEFTLTISSLQPEDFATYYCQLLNSYPYTFGQGTKLEIKR
B6: mAb11008 (antibody, V domains shown)
VH: EVQLVESGGGLVQPGGSLRLSCAASGFTVSSNYMTWVRQAPGKGLEWVSVIYSGGSTFYADSVKGRFTISRHNSENTLYLQMNSLRAEDTAVYYCARDLAAAGTDYWGQGALVTVSS
VL: B5 VL with E81D, L90H, P95L
B7: mAb10969 (antibody, V domains shown)
VH: QVQLVESGGGVVQPGRSLRLSCAASGFTFSSYAMHWVRQAPGKGLEWVAVISYDGSNKYYADSVKGRFTISRDNSKNTLYLQMNSLRAEDTAVYYCARDGRTITMVRGVIDDAFDIWGQGTMVTVSS
VL: not shown
B8: mAb10982 (antibody, V domains shown)
VH: EVQLVESGGGLVQPGGSLRLSCAASGLTVSSNYMSWVRQAPGKGLEWVSVIYSGGTTYYADSVKGRFTISRHNSKNTLSLQMNSLRAEDTAVYYCARGEGANYYGMDVWGQGTTVTVSS
VL: QSVLTQPPSVSGAPGQRVTISCTGSSSNIGTGYDVHWYQQLPGTAPKLLIYGNSNRPSGVPDRFSGSKSGTSASLAITGLQAEDEADYYCQSYDSSLSGYVVFGGGTKLTVLG
B9: mAb10986 (antibody, V domains shown)
VH: EVQLVESGGGLVQPGGSLRLSCAASEFTVSSNYMSWVRQAPGKGLEWVSVIYSGGSTFYADSVKGRFTISRDNSKNTLYLQMNSLRAEDTAVYYCARALPYGDLHFDYWGQGTLVTVSS
VL: B8 VL with S54T, G99D, Y100S, V101Y, G105T, L109V
B10: mAb10985 (antibody, V domains shown)
VH: EVQLVESGGGLVQPGRSLRLSCAASGFTFDDYAMHWVRQAPGKGLEWVSGISWNRGSIGYADSVKGRFTISRDNAKNSLYLQMSSLRAEDTALYYCAKDGERWDSVVVPSARNGMDVWGQGTTVTVSS
VL: B8 VL with T31A, Y100S, V101Y, G105T, L109V
B11: mAb10957 (antibody, V domains shown)
VH: EVQLVESGGGLVQPGGSLRLSCAASGVTVSSNYMSWVRQAPGKGLEWVSVIYSGGSTFYADSVKGRFTISRDNSKNTLFLQMNSLRIEDTAVYYCARDLGPYGMDVWGQGTTVTVSS
VL: DIQLTQSPSFLSASVGDRVTITCRASQGISSYLAWYQQKPGKAPKLLIYAASTLQSGVPSRFSGSGSGTQFILTISSLQPEDFATYYCQQLNSYPGFTFGPGTKVDIKR
B12: mAb10971 (antibody, V domains shown)
VH: B11 VH with V12I, A60S, T68S, F79Y, I87A, G100Y, P101Y
VL: B11 VL with S31T, Q70E, I72T, N92D, F97L, P101G, D106E
B13: mAb11010 (antibody, V domains shown)
VH: QVQLVESGGGVVQPGRSLRLSCAASGFTFSSYGMHWVRQAPGKGLEWVAVISYDGSYKYYADSVKGRFTISRDNSKNTLYLQMNSLRAEDTAVYYCAIDGGTVTTIFDYWGQGTLVTVSS
VL: not shown
B14: mAb11002 (antibody, V domains shown)
VH: EVQLVESGGGLVQPGGSLRLSCAASGFTVSSNYMSWVRQAPGKGLEWVSVIYSGGSTFYADSVKGRFTISRHNSKNTLYLQMNSLRAEDTAVYYCAREGYGMDVWGQGTTVTVSS
VL: not shown
B15: mAb10989 (antibody, V domains shown)
VH: QVQLVQSGAEVKKPGASVKVSCKASGYIFTGYYMHWVRQAPGQGLEWMGWINPNSGGANYAQKFQGRVTLTRDTSITTVYMELSRLRFDDTAVYYCARGSRYDWNQNNWFDPWGQGTLVTVSS
VL: QSALTQPASVSGSPGQSITISCTGTSSDVGTYNYVSWYQQHPGKAPKLMIFDVSNRPSGVSDRFSGSKSGNTASLTISGLQAEDEADYYCSSFTTSSTVVFGGGTKLTVLG
B16: mAb10966 (antibody, V domains shown)
VH: EVQLVESGGGLVQPGGSLRLSCAASGLTVSSNYMSWVRQAPGKGLEWVSVIYSGGSTFYADSVKGRFTISRDNSKNTLYLQMNSLRPEDTAVYYCAREGRIAATGYGMDVWGQGTTVTVSS
VL: not shown
B17: mAb10965 (antibody, V domains shown)
VH: EVQLVESGGGLIQPGGSLRLSCAASVFTVSYNYMSWVRQAPGKGLEWVSVIYSGGSTYYADSVKGRFTISRDNSKNTLYLQMNSLRAEDTAVYYCARALPGWGGSFEYFDYWGQGTLVTVSS
VL: not shown
B18: mAb10938 (antibody, V domains shown)
VH: EVQLVESGGGLVQPGGSLRLSCAVSGFTVSSNYMSWVRQAPGKGLEWVSLIYSGGSTFYADSVKGRFTISRHNSKNTLYLQMNSLRAEDTAVYYCAREGGYSYDYNYWGQGTLVTVSS
VL: DIQMTQSPSSLSASVGDRVTITCQASQDIRNYLNWYQQKPGKAPKLLIYDASNLETGVPSRFSGIGSGTDFTFTISSLQPEDIATYYCQQYDNLPITFGQGTRLEIKR
B19: mAb10967 (antibody, V domains shown)
VH: EVQLVESGGGLVQPGGSLRLSCAASGFTVSSNYMSWVRQAPGKGLEWVSVIYPGGSTFYADSVKGRFTISRDNSKNTLYLQMNSLRAEDTAVYYCARDQRDFAWGQGTLVTVSS
VL: B18 VL with R30S, I65S, S77G, I96P
B20: mAb10955 (antibody, V domains shown)
VH: EVQLVESGGGLVQPGGSLRVSCAASGFTVSRNYMSWVRQAPGKGLEWVSVIYSGGSTFYADSVKGRFTISRDNSKNTLYLQMNSLRAEDTAIYYCARYIPRFDPWGQGTLVTVSS
VL: B18 VL with R30S, Y36F, K42R, I65S
B21: mAb10954 (antibody, V domains shown)
VH: EVQLVESGGGLVQPGGSLRLSCAASGITVSSNYMSWVRQAPGKGLEWVSLIYSGGSTYYADSVKGRFTISRDNSKNTLYLQMNSLRVEDTAVYYCARDHGMAAAGYNYWGQGTLVTVSS
VL: B18 VL with R30N, N31K, I65S, S76N, I83F, Y87F, I96P, T97A, R103K, L104V
B22: mAb11004 (antibody, V domains shown)
VH: QVQLVESGGGVVQPGRSLRLSCVASGFTFSIYGMDWVRQAPGKGLEWVAVISYDGSNKYYADSVKGRFTISRDNSKNTLYLQMNSLRPEDTAVYYCAKDREAAADAFDIWGQGTMVTVSS
VL: DIQMTQSPSSVSASVGDRVTITCRASQGISSWLAWYQQKPGKAPKLLIYAASSLHSGVPSRFSGSGSGTDFTLTISSLQPEDFATYYCQQANSFRLTFGGGTKVEIKR
B23: mAb10984 (antibody, V domains shown)
VH: EVQLVESGGGLVQPGGSLRLSCAASGLTVNRNYMSWVRQAPGKGLEWVSLIYSGGSTYYADSVKGRFTISRDNSKNTLYLQMNSLRLEDTAVYYCARGELGIPYGMDVWGQGTTVTVSS
VL: QSVLTQPPSVSAAPGQKVTISCSGSSSNIGNNYVSWYQQLPGTAPKLLIYDNNKRPSGIPDRFSGSKSGTSATLGITGLQTGDEADYYCGTWDSSLSAGVFGGGTKLTVLG

Target: SARS-COV-2 RBD extracellular domain expressed with a C-terminal mouse IgG2a (SARS-COV-2 RBD-mFc) (SARS-CoV-2)
Experiment: SPR, captured mAb, RBD-mFc in solution, 37 C

Binder | Kd | koff | kon | t½
B1 | 0.155 nM | 0.000165 s⁻¹ | 1.06e+06 M⁻¹ s⁻¹ | 1.17 h
B2 | 0.158 nM |  |  | 0.563 h
B3 | 22.4 nM | 0.0197 s⁻¹ | 879000 M⁻¹ s⁻¹ | 0.01 h
B4 |  |  |  | 1.53 h
B5 | 0.197 nM |  |  | 2.52 h
B6 | 0.872 nM | 0.000405 s⁻¹ | 464000 M⁻¹ s⁻¹ | 0.475 h
B7 | 0.174 nM |  |  | 1.36 h
B8 | 0.21 nM | 0.000258 s⁻¹ | 1.23e+06 M⁻¹ s⁻¹ | 0.747 h
B9 | 0.0126 nM |  |  | 3.32 h
B10 | 0.0401 nM |  |  | 0.513 h
B11 | 0.0463 nM |  |  | 2.68 h
B12 | 0.0397 nM | 9.41e-05 s⁻¹ | 2.37e+06 M⁻¹ s⁻¹ | 2.04 h
B13 | 0.0505 nM |  |  | 2.4 h
B14 | 32.6 nM |  |  | 0.0117 h
B15 |  |  |  | 0.527 h
B16 | 0.0405 nM |  |  | 1.94 h
B17 | 0.237 nM |  |  | 0.57 h
B18 | 0.173 nM |  |  | 2.94 h
B19 | 0.0229 nM |  |  | 5.78 h
B20 | 0.202 nM |  |  | 0.497 h
B21 | 0.0369 nM |  |  | 
B22 | 0.117 nM | 0.000118 s⁻¹ | 1.01e+06 M⁻¹ s⁻¹ | 1.63 h
B23 | 0.0404 nM |  |  | 2.3 h
